# Like-named read-outs stand apart in the source and are kept apart here.
# Experiments:
# [1] = target: T1, Human Serum Albumin (human, UniProt P02768 25-609); assay: BIAcore SPR;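 for koff: purified dAbs run at 1 µM, 500 nM and 50 nM over human, cynomolgus, mouse and rat serum albumin in BIAcore binding measurements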
# T1 construct: mature; purified protein on CM5 chips for BIAcore; also called HSA; human SA
# [2] = target: T2, Rat Serum Albumin (rat, UniProt P02770 25-608); assay: BIAcore SPR;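 for koff: purified dAbs run at 1 µM, 500 nM and 50 nM over human, cynomolgus, mouse and rat serum albumin in BIAcore binding measurements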
# T2 construct: mature; purified protein on CM5 chips for BIAcore; also called RSA; rat SA
# T2 sequence (P02770 25-608): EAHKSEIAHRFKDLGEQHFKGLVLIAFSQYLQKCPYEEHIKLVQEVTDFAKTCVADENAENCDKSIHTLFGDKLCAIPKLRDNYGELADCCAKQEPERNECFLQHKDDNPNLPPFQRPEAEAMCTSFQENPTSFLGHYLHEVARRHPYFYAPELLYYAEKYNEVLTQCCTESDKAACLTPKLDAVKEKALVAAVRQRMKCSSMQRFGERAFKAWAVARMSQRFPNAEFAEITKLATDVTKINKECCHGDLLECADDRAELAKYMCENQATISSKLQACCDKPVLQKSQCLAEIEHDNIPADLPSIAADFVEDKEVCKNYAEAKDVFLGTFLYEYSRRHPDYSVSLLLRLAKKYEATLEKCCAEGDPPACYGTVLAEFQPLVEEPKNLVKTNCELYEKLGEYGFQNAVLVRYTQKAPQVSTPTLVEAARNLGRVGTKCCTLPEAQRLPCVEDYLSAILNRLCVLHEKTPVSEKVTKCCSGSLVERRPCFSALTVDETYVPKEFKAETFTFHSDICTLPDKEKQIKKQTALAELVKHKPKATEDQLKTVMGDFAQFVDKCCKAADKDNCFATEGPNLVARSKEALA
# [3] = target: T3, Cynomolgus monkey Serum Albumin (Cynomolgus monkey, UniProt A2V9Z4 25-608); assay: BIAcore SPR;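 for koff: purified dAbs run at 1 µM, 500 nM and 50 nM over human, cynomolgus, mouse and rat serum albumin in BIAcore binding measurements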
# T3 construct: mature; purified protein on CM5 chips for BIAcore; also called CSA; cyno SA
# T3 sequence (A2V9Z4 25-608): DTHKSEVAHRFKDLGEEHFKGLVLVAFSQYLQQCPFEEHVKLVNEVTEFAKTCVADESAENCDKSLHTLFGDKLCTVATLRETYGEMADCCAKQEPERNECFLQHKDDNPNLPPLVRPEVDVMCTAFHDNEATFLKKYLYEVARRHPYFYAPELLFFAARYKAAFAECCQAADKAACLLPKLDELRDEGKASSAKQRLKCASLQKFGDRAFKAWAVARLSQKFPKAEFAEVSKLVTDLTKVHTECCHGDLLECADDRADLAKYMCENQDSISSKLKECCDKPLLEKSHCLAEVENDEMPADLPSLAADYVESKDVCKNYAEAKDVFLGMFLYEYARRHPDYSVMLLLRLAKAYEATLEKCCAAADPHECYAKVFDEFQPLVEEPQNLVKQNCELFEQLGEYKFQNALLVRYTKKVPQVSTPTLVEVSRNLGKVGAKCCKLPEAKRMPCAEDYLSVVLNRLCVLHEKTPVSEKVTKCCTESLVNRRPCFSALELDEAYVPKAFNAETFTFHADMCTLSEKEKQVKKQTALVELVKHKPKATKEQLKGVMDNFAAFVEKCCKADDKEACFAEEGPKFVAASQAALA
# [4] = target: T3, Cynomolgus monkey Serum Albumin; assay: BIAcore SPR; remark: listed apart in the source;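 for koff: purified dAbs run at 1 µM, 500 nM and 50 nM over human, cynomolgus, mouse and rat serum albumin in BIAcore binding measurements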
# Description: (§1) MSA antigen was obtained from Sigma (essentially fatty acid free, ˜99% (agarose gel electrophoresis), lyophilized powder Cat. No. A3559) and CSA was purified from Cynomolgus serum albumin using prometic blue resin (Amersham).
# [5] = target: T4, mouse serum albumin (mouse, UniProt P07724 25-608); assay: BIAcore SPR
# T4 construct: mature; purified protein on CM5 chips for BIAcore; also called MSA; mouse SA
# T4 sequence (P07724 25-608): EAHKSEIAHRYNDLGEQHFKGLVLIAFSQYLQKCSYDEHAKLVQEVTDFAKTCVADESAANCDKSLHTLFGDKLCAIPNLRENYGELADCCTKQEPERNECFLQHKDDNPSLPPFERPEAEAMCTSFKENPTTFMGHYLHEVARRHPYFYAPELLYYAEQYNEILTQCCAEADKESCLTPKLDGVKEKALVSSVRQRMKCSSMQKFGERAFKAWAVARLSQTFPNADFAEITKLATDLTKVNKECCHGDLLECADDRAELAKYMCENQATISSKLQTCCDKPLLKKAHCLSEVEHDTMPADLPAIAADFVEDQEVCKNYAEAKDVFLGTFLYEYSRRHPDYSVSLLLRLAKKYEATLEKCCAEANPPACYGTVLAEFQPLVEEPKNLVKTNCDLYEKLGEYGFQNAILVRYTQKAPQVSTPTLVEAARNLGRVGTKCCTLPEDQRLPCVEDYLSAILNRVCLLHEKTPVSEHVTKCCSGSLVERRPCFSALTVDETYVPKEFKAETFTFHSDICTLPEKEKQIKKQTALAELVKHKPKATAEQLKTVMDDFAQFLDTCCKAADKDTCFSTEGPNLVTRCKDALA
# Description: as §1
# [6] = target: T2, Rat Serum Albumin; assay: BIAcore SPR; remark: listed apart in the source
# Description: as §1
# [7] = target: T1, Human Serum Albumin; assay: BIAcore SPR; remark: listed apart in the source
# Description: as §1
# [8] = target: T3, Cynomolgus monkey Serum Albumin; assay: BIAcore SPR; remark: listed apart in the source
# Protocol: (§2) Binding to HSA, CSA, MSA and RSA by BIAcore was confirmed using purified protein at 3 concentrations 1 μM, 500 nM and 50 nM.
# [9] = target: T4, mouse serum albumin; assay: BIAcore SPR; remark: listed apart in the source
# Protocol: as §2
# [10] = target: T2, Rat Serum Albumin; assay: BIAcore SPR; remark: listed apart in the source
# Protocol: as §2
# [11] = target: T1, Human Serum Albumin; assay: BIAcore SPR; remark: listed apart in the source
# Protocol: as §2
# [12] = target: T2, Rat Serum Albumin; assay: Albumin KD column of the PK table (repeats Table 6)
binder,measurement,setting,value
"DOM7h-11-86 (other, Vk dAb; also called DOM7h-11-65 W108R/N106I) VL: DIQMTQSPSSLSASVGDRVTITCRASRPIGTMLSWYQQKPGKAPKLLILAFSRLQSGVPSRFSGSGSGTDFTLTISSLQPEDVATYYCAQAGTHPTTFGQGTKVEIKR",Ka,[1],9.51e+07 M⁻¹
same,Kd,[1],10.7 nM
same,kon,[1],790000 M⁻¹ s⁻¹
same,Ka,[2],2.8e+07 M⁻¹
same,Kd,[2],37.8 nM
same,kon,[2],560000 M⁻¹ s⁻¹
same,Ka,[3],1.08e+08 M⁻¹
same,Kd,[3],13.4 nM
same,kon,[3],833000 M⁻¹ s⁻¹
"DOM7h-11-67 (other, Vk dAb) VL: DIQMTQSPSSLSASVGDRVTITCRASRPIGTMLSWYQQKPGKAPKLLILAFSRLQSGVPSRFSGSGSGTDFTLTISSLQPEDFATYYCAQAGTHHTTFGQGTKVENKW",Ka,[4],3.69e+08 M⁻¹
same,Kd,[4],2.7 nM
same,kon,[4],2.03e+06 M⁻¹ s⁻¹
same,Kd,[5],6.7 nM
same,Ka,[6],8.6e+07 M⁻¹
same,Kd,[6],11.6 nM
same,kon,[6],1.33e+06 M⁻¹ s⁻¹
same,Ka,[7],1.12e+09 M⁻¹
same,Kd,[7],0.9 nM
same,kon,[7],1.75e+06 M⁻¹ s⁻¹
"DOM7h-11-57 (other, Vk dAb) VL: DIQMTQSPSSLSASVGDRVTITCRASRPIGTMLSWYQQKPGKAPKLLILAFSRLQSGVPSRFSGSGSGTDFTLTISNLQPEDFATYYCAQAGTHPTTFGQGTKVEIKW",Ka,[4],1.63e+08 M⁻¹
same,Kd,[4],6.1 nM
same,kon,[4],1.34e+06 M⁻¹ s⁻¹
same,Kd,[5],10.9 nM
same,Ka,[6],3.42e+07 M⁻¹
same,Kd,[6],29.2 nM
same,kon,[6],566000 M⁻¹ s⁻¹
same,Ka,[7],5.52e+08 M⁻¹
same,Kd,[7],1.8 nM
same,kon,[7],1.22e+06 M⁻¹ s⁻¹
"DOM7h-11-88 (other, Vk dAb; also called DOM7h-11-67 W108R) VL: DIQMTQSPSSLSASVGDRVTITCRASRPIGTMLSWYQQKPGKAPKLLILAFSRLQSGVPSRFSGSGSGTDFTLTISSLQPEDFATYYCAQAGTHHTTFGQGTKVENKR",Ka,[1],1.51e+08 M⁻¹
same,Kd,[1],6.71 nM
same,kon,[1],1.14e+06 M⁻¹ s⁻¹
same,Ka,[2],5.96e+07 M⁻¹
same,Kd,[2],16.9 nM
same,kon,[2],846000 M⁻¹ s⁻¹
"DOM7h-11-69 (other, Vk dAb) VL: DIQMTQSPSSLSASVGDRVTITCRASRPIGTMLSWYQQKPGKAPKLLILAFSRLQSGVPSRFSGSGSGTDFTLTISSLQPEDFATYYCAQAGVHPTTFGQGTKVEIKR",Kd,[4],5.9 nM
same,Kd,[5],10 nM
same,Kd,[6],27.1 nM
same,Kd,[7],3.2 nM
"DOM7h-11-68 (other, Vk dAb) VL: DIQMTQSPSSLSASVGDRVTITCRASRPIGTMLSWYQQKPGEAPKLLILAFSRLQSGVPSRFSGSGSGTDFTLTISSLQPEDFATYYCAQTGTHPTTFGQGTKVEIKW",Kd,[4],37.9 nM
same,Kd,[5],15.5 nM
same,Kd,[6],25.3 nM
same,Kd,[7],33.5 nM
"DOM7h-11-79 (other, Vk dAb) VL: DIQMTQSPSSLSASVGDRVTITCRASRPIGTMLSWYQQKPGKAPKLLILAFSRLQSGVPSRFSGSGSGTDFTLTISSLQPEDFATYYCAQTGTHPTTFGQGTKVEIKW",Kd,[4],11.7 nM
same,Kd,[5],6.9 nM
same,Kd,[6],11.1 nM
same,Kd,[7],5.9 nM
"DOM7h-14-18 (other, Vk dAb (AlbudAb)) VL: DIQMTQSPSSLSASVGDRVTITCRASQWIGSQLSWYQQKPGKAPKLLIMWRSSLQSGVPSRFSGSGSGTDFTLTISSLQPEDFATYYCAQGLMKPMTFGQGTKVEIKR",Kd,[8],180 nM
same,koff,[8],0.105 s⁻¹
same,kon,[8],630000 M⁻¹ s⁻¹
same,Kd,[9],65 nM
same,koff,[9],0.0924 s⁻¹
same,kon,[9],2.28e+06 M⁻¹ s⁻¹
same,Kd,[10],410 nM
same,koff,[10],0.228 s⁻¹
same,kon,[10],560000 M⁻¹ s⁻¹
same,Kd,[11],280 nM
same,koff,[11],0.0339 s⁻¹
same,kon,[11],189000 M⁻¹ s⁻¹
same,Kd,[12],410 nM
"DOM7h-14-19 (other, Vk dAb (AlbudAb)) VL: DIQMTQSPSSLSASVGDRVTISCRASQWIGSQLSWYQQKPGEAPKLLIMWRSSLQSGVPSRFSGSGSGTDFTLTISSLQPEDFATYYCAQGAALPRTFGQGTKVEIKR",Kd,[8],225 nM
same,koff,[8],0.156 s⁻¹
same,kon,[8],700000 M⁻¹ s⁻¹
same,Kd,[9],60 nM
same,koff,[9],0.0576 s⁻¹
same,kon,[9],1.16e+06 M⁻¹ s⁻¹
same,Kd,[10],890 nM
same,koff,[10],0.287 s⁻¹
same,kon,[10],320000 M⁻¹ s⁻¹
same,Kd,[11],70 nM
same,koff,[11],0.0525 s⁻¹
same,kon,[11],826000 M⁻¹ s⁻¹
same,Kd,[12],890 nM

# Reference: patent US20130129746A1 (GlaxoSmithKline, published 2013)
